In the DeepSol protein solubility set:

assay: soluble on expression in E. coli; label from the status in PepcDB or PDB records

Sequence | soluble on expression in E. coli
MGSDKIHHHHHHMFDKQEFVSKLVTEEKAKIVLLVMDGLGDIPVNGKTPLQAANTPNLDNLAKESDLGQTIPVLPGITPGSGPGHLSLFGYDPIKYQIGRGILEALGIGVEVGEKDVVARANFATWDGKVVLDRRAGRPATEESAKVVQLLSEKIKKIEDVEITFYPGKEHRFVVKFTGEGLGDKVTDADPQKEGHPMVWAEGLDEPSKKTARIVNELIKKIAEVLKDNPKINFALIRGFSKYPDLPKFPQVYKMKAGAIATYPMYRGLAKLVGMEIIETGQTVADEIKTLKEKWNDYDFFYVHVKKTDSYGEDGKFEEKVKVIEEVDAIIPEIVSLNPDVLVITGDHSTPVPLKAHSWHPVPLLIWSKYTRRGLSQAFNEFECARGTLGTIHASDVMTLALAYAGKLEKFGA | not soluble
MGSDKIHHHHHHMFDLNDLFYFVQVVECRGFAPASRKLGIPKSKLSRRIAGLEERLGVSLIHRSTRKFAVTESGRDYYGHCVAMLVEADAAEEAIQRSKSEPQGKVVISCPPAMAAMGINEAIAGFMAAHPKVQVHIESTNRRVDPLIENIDIALRVRFPPLEDDGLVVKTLGHSAQRLVAHPDLAALLPANASFEALARLPSLDVTSSTPEHRWLLENGPGHYVEVRHAPRLVSSDLDAILQAALQGVGVAQLPEILVREALQQGRMVELFDAHRPKCGILHAVFVSRRGLLPAVRGLLDAFESSFTELTHNPESLYCSLHRTNSRIQGD | not soluble
MGSDKIHHHHHHMFDTLASLGRDLQARETLNACLDRVFRDVCAQGFQSLVYDYAPVPLSMEGALITPSVFLQRNAPDDMHNVWCEHGYYQNDPVQQRATRRTTPFVWSYRTEGRTEGRTEGVEYVGDQHRQVTRYLCDSDMGTGVTVPLHLPGGAFATFSAAVNATQAEAPRLAEAQLPPFLLLAHAFQARAQELLDPQERRCHHIALTRRERECLQYSAKGMTAKSIAATLNRSTATVNLHLNSAARKLGARNRVEAVVRGMHYRLLEL | not soluble
MGSDKIHHHHHHMFEMGIQELVKTIDTNINHMISLSVLNLAQLGIKYGIFKAVASRPSYEELLSQIPVPNKPLLKKLIEHLKALGIIEETPSNLILNGFSYVLKFPKEDYMLLLSDWIPIWEEIYKMVDFALISYSHPYVLMDFDKDADFWDIRLSSSFNKTYRDAIINLGEIREDSYILDLGCGSVSPAYFGKFISEDGKYVGVDYSPGLLEIARERVERNGLPAELKEMDVSLIRTRSKYDVAIMSFLLEYVRDREEVLGKVLEALDSGGKLIIVEAFRDEFENIQAMEFFESLNRSFVGYPAKAEIKKAILREGFDVSFEDYGKSILVVRKL | not soluble
MGSDKIHHHHHHMFKDYQPKKGFDEYFSSDDFLPRSSLEPLLTSLGEMGLHQLNISHEIARKLLLRHGATFRLNDSGSKGSERILPFDPLPRVIGSLEWLGLERGLIQRLEAIDLFLADVYGKQQIINDGIIPRDFIESSDGWRPQMKGFVLPLGKWCHVSGLDLIRDGNGEWLVLEDNLRCPSGVAYFLENRLVMKRIFPSLFNGRVVRPIEDYPSYLLKSLQELAVWTDTPKVVLLTPGVFNSAYFEHSYLAQQMGIQLVEGSDLVCQNQNVYLKTTSGIKKVDVIYRRIDDDYLDPKFFRKDSMLGVPGLIDVLKKGRVAIANAPGTGLADDKLIYTFVPEMIRYYLKEEPIINNVKTYVCARSSDLSFVLENLGKLVVKSVSEAGGYGMLIGPHSSQIDIDKFSAKIKANPRNYIAQPTLDLSTVPSLSDGEVYPCHVDLRPYVLRGKNTWVSPGGLTRVALKRDSLIVNSSQGGGCKDTWVVG | not soluble
MGSDKIHHHHHHMFKKYDAYLVGYYGMQNSGDDALMYATAWAAKNILGCNNTKVGLYGDYARETQSDNQLPLKFTQQFPGQNRLLHYKTAIQSKRIIFGGGSVLHSESDINLKRQLMSLANQKKSLAVGIGIGPFNSVMAEKSCAKFLNECGYVGVRDNASLAIARNIAPHANVHKTFDLAPLLLCSKQYKPSNRERQGIALTLCSVAIDAMGNTDELEEEKRVEQFVQLITKIYARTGEPITLIEFNGHNVLGDWKINNNIITRLLDKYIPVSIKKYDPNPIALLNKLSGYKAIVSMRLHGSILGYLANTPVLSINYHSKCKGWCDEVGMPEDYKIDLFNLNIEKIVSQIALGVSTTFQQPTLSINNALKNSLSNWSTQNEQFKFYRNYSTV | not soluble
MGSDKIHHHHHHMFKPMASVFTNHQIAGHYRAIERAQKCVVPFHFEIQGQEYPKPKPERNWLRRLSGTSSEKYAMVELTPTKVVLWSPEGRNLGEMPLSAVRRIQIGAIRCHVTEGLDPRHAFRATIFVLTDSGNYYFANSDMEVLPAICKFAHEHQVPVEDPLRLIPLLKVGWRVAAVTLHETYAQLVAHTGYPADKV | not soluble
MGSDKIHHHHHHMFLVISVVGSSNIDIVLKVDHFTKPGETQKAIEMNVFPGGKGANQAVTVAKIGEKGCRFVTCIGNDDYSDLLIENYEKLGITGYIRVSLPTGRAFIEVDKTGQNRIIIFPGANAELKKELIDWNTLSESDILLLQNEIPFETTLECAKRFNGIVIFDPAPAQGINEEIFQYLDYLTPNEKEIEALSKDFFGEFLTVEKAAEKFLELGVKNVIVKLGDKGVLLVNKNEKKHFPTFKVKAVDTTAAGDVFNGAFAVALSEGKNPEEAVIFGTAAAAISVTRLGAQSSIPAREEVEAFLKNL | soluble
MGSDKIHHHHHHMFQYRFKWSFSSDPNLSDRLFELIEVIFPGLNDLVERGRKLGASWESASTPFIRFHDDVAITHVGVLEIPMVIMGQRVTVGGIHGVATRPEFRRKGYYREVIEEVLEYCDQIYETLILTTPEPEYHLPFGFRVVEEYIFHLKCSSKGNVNGWRILDFSDNQDLALLHRLLETRAPVSHVVGVVNEKPVFFVNEGSRDLYYAEDLDLIACIKIENNRLHIFDLVATKICSLKEILGRTSEVIEEVKIYFSPDLLDVDNVQAFPYKLEDTVLMIRGQFAAVGEKFMLPRSARC | not soluble
MGSDKIHHHHHHMFSAMLEVNPIPEQFDAYLGMAKMLRPELEKIEGFIDNERYESLTRPGWLLSLSNWRDEKSLIRWRTTTKHHKVQQAARDRIFADYRLRIGEVDTDTHLPIGEALHQQRLDVTEAGEGKAVTLLDADRSRYWLNGASAEAVAKSLGLDAQARGLLAWDVFKALLSPEEVIVVLTWRDEAAALAFGKNARLPGDVRLRSIRIVREYGMFDRREAPQYFEEVPRKA | not soluble
MGSDKIHHHHHHMFSIKRVIYYQELIRVGSFTKAAKALNISQAFLSQEIARLEIETERKLINRTTRQFSLTPFGQIFADKIQGMIKEHYELEQFVSSYEESTDGALLVGVIPIFNRLAHYNMFNLFQKAYPNIDISFIDGVSTDLLERVRNGEIHLSFSTPFDEYLNDPLFHHTICQIDDIVAVMATSHPLADNKTLSLPQLVKEKLIVPQKGTGEHAAVSESFTRQGINPSYFRECSNMDIIMDLVMNLSGVVFLCSSVAKSLTAYDVAVIPLEEQLKRTFAISYLKRSVNIPMVRLFLDFLQDYSESVR | not soluble
MGSDKIHHHHHHMFSQHSFDFLNSLAVNNDREWFKTNQQQYEDQVRTPALQFIEAMQGPILGLSPRFTAVAKKVGGSLMRPQRDSRFSKDKTPYKTNVGIQFKHFQAKDVHAPGFYVHIANDECFIAAGIWHPESKDLNAIRHCIDENPNAYQKALTQLSQAGFELTGDSLIRPPRGFDKHHPMIDELRRKDFIAIKPISSEQVCQADFIEFCTQEYQHTRALMAYLCFALDLDF | not soluble
MGSDKIHHHHHHMFTLYERKNRQKSNVNIFVMNYVTNLTKENLAGERIGVFFGTFAPLHVGHQAEIYKAAALNDGVLVVTSGYTGDRGEQIGLPLRKRFRYLRQAFADEWQIKVDYLNEDGIPKMPDGWDVWLDKLLGIIKRNIVNKNAKITFYTGEPDYKKEIEKRLGDNPQFRVSLMDRTILNISATKIRKEPLKYWDYINRVFRRHFVQKVVVMGSSNSGKSTLIRRLARSANSPFSDDFAAIYQEESNVADSEMDIKDYSNIIQGQYQANSLEINSPANNGLAIFNGDAISLQAYSNLLLNQDERLQLKHLYNTIISAEEFDLILVIPPFSDPRRKVIRFTGAAIDPVAYYQELIRLIDFYGFSDKMVVLNAKNQTDDPAGYYARYLQALDAIEKYTSFDIEHHR | not soluble
MGSDKIHHHHHHMFYQLYEMNHAMMAPWRTAADAMRLAFSNPMNPVSHTYFGRAAAAGLEVFERATRRYGKPEFGLPETEIDGQPVPVRERIVWREPFCNLIHFERSLPRDRAPDPKVLIVAPMSGHYATLLRGTVEALLPHSDVYITDWIDARMVPLSEGTFDLDDYIDYVIQMLHFLGPDAHVIGVCQPAVPVLAAVALMEAAEDPLAPSTMTLMGGPIDTRINPTAVNELAKERPIEWFRDNVVMPVPWPQPGFMRMVYPGFLQLSGFMSMNLDRHLIAHKEFFAHLVKNDGDAAEKHRDFYDEYLAVMDLTAEFYLQTVQVVFMQHALPKGEMIHRGKRVDPTAIRRVALLTVEGENDDISGLGQTKAAQTICTGIPDSMRQHYMQPDVGHYGVFNGSRFRREIAPRIVAFQRRHSRHAKPVKQLIKGGKSA | not soluble
MGSDKIHHHHHHMGASFNQAGFVKRIFTSHGTTLFVDTSSGELRHGLMEYSPNNVLLTKDGKSAHIRFVDGPTDIVYFTEYSAISGSKRIDGIDALNLMPDNTLTIVDLPRNKFGLVQNGTFLSARSDGRITLSAPLCRGWENFHFRKDASEVSGVIVSHRIDGKIITFFIQDRTDIIQSILFGGDFYERDTLDLIRDRSTPGKVFVDIGANIGNHSIFMSKFCSPSEVIVFEPNPKAIEILKLNVLLNACANINTSYLGLALGSKAAQMRVFSPDPNNMGRAQMLDDDDGNVKCVAGDLLLQQKPVGLLKIDVEGSEFEVLRGMQGTIETWRPNILIEVWPQSQQDLFSWCDSFRYVVQETFPTDNNYFLAPIERQS | not soluble
MGSDKIHHHHHHMGDLPGLVRLSIALRIQPNDGPVFYKVDGQRFGQNRTIKLLTGSSYKVEVKIKPSTLQVENISIGGVLVPLELKSKEPDGDRVVYTGTYDTEGVTPTKSGERQPIQITMPFTDIGTFETVWQVKFYNYHKRDHCQWGSPFSVIEYECKPNETRSLMWVNKESFL | not soluble
MGSDKIHHHHHHMGFKEDFMGNAPGACPFLHLVERSTSDVLEQAEALPFWSQDYTQLSKGAFSGSVTSVSCDGLQIFTETMNQAVDQIASAPVDSYVMGLPTLVDGESTWGLLPITTNSLITLEKNAELYFKTSNISEITAAVIPAQRLETYAAEVEWIDLSKVMEGLKPVEMLHPDIAQQLLSALQGGIQYKADIADNIHAHQMWRNFEDDLLSTCLHTLLHVRGNIHPHFDQRLPRYLVNRVRDYTLSNSALPLTIGELCKSLRVSRRTLNHAFIRVLGITPVAYIRNLRLHRVRFEMQQSPHEVISIAHLATKWGFWHLSLFSRYYRELFGECPIDTLQRARLESKRP | not soluble
MGSDKIHHHHHHMGGNRFGQSPVTGGAGVNAVAKRACLDDVQIAFGQGHRVHVARADTAPDLTRAFAQPIHLCTPICPPRTLTTTRHMDNPHGRAIVHAMEQLDADILIVGGGLNGPCLALACAQAGLSSVVLDALPAQTREETGFDGRAYALALASVRMLDALGIWNQVEDHAQPMLEIKASDGRAGEGAAPFFLHFDHAEIEEGPMGHMLEDRYLRRALMAAMEASSLVAHRAASRVLSQDTNGMASVTLDGGEVLRGRLLIGADGKRSGVAERAGIRRMGWDYNQTALVCAVDHDRPHNGIAHQFFMPGGPLAILPLPGNRSSIVWSESEPRASELAAADDDTFMDALRPAFGDFLGNISLTGQRHSYPLSLSLAQAFVAEKLALVGDAAHGVHPIAGQGLNLGLRDVSALAETLADAKRRGEDFARRDVLDRYQQWRRFDTAGLAVATDSVNRLFSNDNPAVRAIRDIGMGAIGALPTLRRRFIREAAGLTGDLPRLMQGRTL | not soluble
